The record followed here is patent US20240158538A1 (HUMMINGBIRD BIOSCIENCE HOLDINGS PTE, published 2024).

Read-outs that look alike come from different tables or passages of the source.

Assay [1] deals with T1, PD-1 (ELISA coat) (human, UniProt Q15116 25-167, limits assumed).
T1 construct: Species read from the list 'human VISTA, PD-1, PD-L1, ...'
The experiment in a line: ELISA, plate coated with PD1.

The target of assay [2] is T2, B7H3 (ELISA coat) (human, UniProt Q5ZPR3 29-461, limits assumed).
T2 construct: Species read from the list 'human VISTA, PD-1, PD-L1, ...'; also called CD276
T2 sequence (looked up): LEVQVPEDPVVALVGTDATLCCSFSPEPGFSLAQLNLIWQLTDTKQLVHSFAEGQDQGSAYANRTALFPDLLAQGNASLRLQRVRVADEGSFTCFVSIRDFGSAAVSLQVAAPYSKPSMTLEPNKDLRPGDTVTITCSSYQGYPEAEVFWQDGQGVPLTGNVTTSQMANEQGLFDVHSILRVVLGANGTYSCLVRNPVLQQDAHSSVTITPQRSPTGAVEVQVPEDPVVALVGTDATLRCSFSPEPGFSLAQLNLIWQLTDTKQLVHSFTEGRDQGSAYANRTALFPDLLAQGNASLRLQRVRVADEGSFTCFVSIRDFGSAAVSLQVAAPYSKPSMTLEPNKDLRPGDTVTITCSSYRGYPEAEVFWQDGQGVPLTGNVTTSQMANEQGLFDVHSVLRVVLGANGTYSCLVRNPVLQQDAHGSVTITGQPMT
The experiment in a line: ELISA, plate coated with B7H3.

In assay [3] the target is T3, B7H4 (ELISA coat) (human, UniProt Q7Z7D3 25-258, limits assumed).
T3 construct: Species read from the list 'human VISTA, PD-1, PD-L1, ...'; also called VTCN1
T3 sequence (looked up): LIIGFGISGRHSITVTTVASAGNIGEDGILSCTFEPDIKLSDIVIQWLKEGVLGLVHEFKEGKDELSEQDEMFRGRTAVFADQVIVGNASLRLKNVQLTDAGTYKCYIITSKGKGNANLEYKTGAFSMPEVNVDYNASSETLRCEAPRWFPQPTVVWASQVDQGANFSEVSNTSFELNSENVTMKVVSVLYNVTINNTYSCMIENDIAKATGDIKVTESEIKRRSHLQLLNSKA
The experiment in a line: ELISA, plate coated with B7H4.

Assay [4] has as its target T4, B7H6 (ELISA coat) (human, UniProt Q68D85 25-262, limits assumed).
T4 construct: Species read from the list 'human VISTA, PD-1, PD-L1, ...'; also called NCR3LG1
T4 sequence (looked up): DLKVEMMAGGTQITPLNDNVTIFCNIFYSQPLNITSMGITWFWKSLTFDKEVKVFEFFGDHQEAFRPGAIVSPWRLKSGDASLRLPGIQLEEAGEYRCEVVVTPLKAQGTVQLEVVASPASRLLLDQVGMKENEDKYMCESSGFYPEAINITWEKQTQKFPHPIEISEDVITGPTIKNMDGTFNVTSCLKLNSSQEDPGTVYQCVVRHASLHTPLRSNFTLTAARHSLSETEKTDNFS
The experiment in a line: ELISA, plate coated with B7H6.

Assay [5] addresses T5, B7H7 (ELISA coat) (human, UniProt Q9UM44 23-344, limits assumed).
T5 construct: Species read from the list 'human VISTA, PD-1, PD-L1, ...'; also called HHLA2
T5 sequence (looked up): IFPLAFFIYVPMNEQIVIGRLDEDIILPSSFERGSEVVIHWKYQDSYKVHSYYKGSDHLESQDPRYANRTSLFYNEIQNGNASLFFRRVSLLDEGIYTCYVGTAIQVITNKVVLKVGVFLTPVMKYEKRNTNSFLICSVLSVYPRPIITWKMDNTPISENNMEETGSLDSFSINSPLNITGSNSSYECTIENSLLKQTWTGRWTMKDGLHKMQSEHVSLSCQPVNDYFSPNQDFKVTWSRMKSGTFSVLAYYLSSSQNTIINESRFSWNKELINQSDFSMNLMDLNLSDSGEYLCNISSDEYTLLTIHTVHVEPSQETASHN
The experiment in a line: ELISA, plate coated with B7H7.

Assay [6] addresses T6, CTLA4 (ELISA coat) (human, UniProt P16410 36-162, limits assumed).
T6 construct: Species read from the list 'human VISTA, PD-1, PD-L1, ...'
The experiment in a line: ELISA, plate coated with CTLA4.

Assay [7] deals with T7, human PD-L1 (ELISA coat) (human, UniProt Q9NZQ7 19-239). The experiment in a line: ELISA, plate coated with B7H1 (PDL1).
Assay [8] deals with T8, human VISTA polypeptide (ELISA coat) (human, UniProt Q9H7M9 33-194).
T8 construct: Recombinant protein (Sino Biological) coated on ELISA plates; construct not described
The experiment in a line: ELISA, plate coated with B7H5 (VISTA).

In assay [9] the target is T1, PD-1 (ELISA coat). The experiment in a line: ELISA, plate coated with PD1. This is another data set of the same source.
Assay [10] addresses T2, B7H3 (ELISA coat). The experiment in a line: ELISA, plate coated with B7H3. The source holds these as a separate data set.
The target in assay [11] is T3, B7H4 (ELISA coat). The experiment in a line: ELISA, plate coated with B7H4. This is another data set of the same source.
Assay [12] has as its target T4, B7H6 (ELISA coat). The experiment in a line: ELISA, plate coated with B7H6. This is another data set of the same source.
Assay [13] concerns the target T5, B7H7 (ELISA coat). The experiment in a line: ELISA, plate coated with B7H7. This is another data set of the same source.
For assay [14], the target named is T6, CTLA4 (ELISA coat). The experiment in a line: ELISA, plate coated with CTLA4. This is another data set of the same source.
Assay [15] concerns the target T7, human PD-L1 (ELISA coat). The experiment in a line: ELISA, plate coated with B7H1 (PDL1). This is another data set of the same source.
For assay [16], the target named is T1, PD-1 (ELISA coat). The experiment in a line: ELISA, plate coated with PD1. The source holds these as a separate data set.
Assay [17] addresses T2, B7H3 (ELISA coat). The experiment in a line: ELISA, plate coated with B7H3. The source holds these as a separate data set.
In assay [18] the target is T3, B7H4 (ELISA coat). The experiment in a line: ELISA, plate coated with B7H4. The source holds these as a separate data set.
Assay [19] addresses T4, B7H6 (ELISA coat). The experiment in a line: ELISA, plate coated with B7H6. This is another data set of the same source.
The target of assay [20] is T5, B7H7 (ELISA coat). The experiment in a line: ELISA, plate coated with B7H7. The source holds these as a separate data set.
The target in assay [21] is T6, CTLA4 (ELISA coat). The experiment in a line: ELISA, plate coated with CTLA4. The source holds these as a separate data set.
Assay [22] addresses T7, human PD-L1 (ELISA coat). The experiment in a line: ELISA, plate coated with B7H1 (PDL1). The source holds these as a separate data set.

T6 sequence (P16410 36-162 limits assumed): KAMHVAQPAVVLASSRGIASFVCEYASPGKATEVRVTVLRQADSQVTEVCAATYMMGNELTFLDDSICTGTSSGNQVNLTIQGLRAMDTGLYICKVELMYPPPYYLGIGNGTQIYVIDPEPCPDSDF
T1 sequence (Q15116 25-167 limits assumed): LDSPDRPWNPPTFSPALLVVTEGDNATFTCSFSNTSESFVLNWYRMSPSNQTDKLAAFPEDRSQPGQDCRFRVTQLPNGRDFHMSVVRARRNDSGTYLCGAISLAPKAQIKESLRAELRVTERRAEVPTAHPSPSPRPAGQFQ
T7 sequence (Q9NZQ7 19-239 limits assumed): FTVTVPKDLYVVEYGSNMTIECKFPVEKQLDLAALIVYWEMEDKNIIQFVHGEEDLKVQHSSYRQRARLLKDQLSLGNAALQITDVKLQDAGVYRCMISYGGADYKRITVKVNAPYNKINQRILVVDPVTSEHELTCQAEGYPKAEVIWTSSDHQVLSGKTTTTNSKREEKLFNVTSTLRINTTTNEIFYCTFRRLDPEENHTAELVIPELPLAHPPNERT

B1: anti-VISTA clone V4-C28 IgG1 (antibody, V domains shown)
VH: QVQLQESGPGLVKPSDTLSLTCTVSGYSITSDYTWNWIRQTPGKGLEWIGHITYSGSVSYNPSLRSRVTISRDTSKNQFSLKLSSVTAADTATYSCARALYYPWYFDVWGTGTTVTVSS
VL: EIVLTQSPATLSLSPGERATLSCRASSSVGYIHWYQQKPGQAPRPLIYATSYRATGIPARFSGSGSGTDNTLTISSLEPEDSAVYYCQQWSSYPPITFGGGTKLEVKR
notes: Human IgG1/kappa
With B1, the binding result in assay [1], in [2], in assay [3], in [4], in [5] and in assay [6] was “no binding (tested: log -7.5 (about 3e-8 M))” throughout. Also, the binding result in [7] was “no binding (tested: log -7.5 (about 3e-8 M))”. The “EC50 (read off the curve)” value in [8] is about 0.02 nM.

B2: anti-VISTA clone V4-C31 IgG1 (antibody, V domains shown)
VH: QVQLQESGPGLVKPSDTLSLTCTVSGYSITSDYTWNWIRQTPGKGLEWIGHITYSGSVSYNPSLRSRVTISRDTSKNQFSLKLSSVTAADTATYSCARALYYPWYFDVWGTGTTVTVSS
VL: EIVLTQSPATLSLSPGERATLSCRASSSVGYIHWYQQKPGQAPRPLIYATYYRTTGIPARFSGSGSGTDNTLTISSLEPEDSAVYYCQQWSSYPPITFGGGTKLEVKR
notes: Human IgG1/kappa
As to B2, the binding result in assay [9], in [10], in assay [11], in [12], in assay [13] and in [14] was “no binding (tested: log -7.5 (about 3e-8 M))” in each case. Moreover, in assay [15], the binding result is “no binding (tested: log -7.5 (about 3e-8 M))”.

B3: anti-VISTA clone V4-C30 IgG1 (antibody, V domains shown)
VH: QVQLQESGPGLVKPSDTLSLTCTVSGYSITSDYTWNWIRQTPGKGLEWIGHITYSGSVSYNPSLRSRVTISRDTSKNQFSLKLSSVTAADTATYSCARALYYPWYFDVWGTGTTVTVSS
VL: EIVLTQSPATLSLSPGERATLSCRASSSVGYIHWYQQKPGQAPRPLIYATYYRATGIPARFSGSGSGTDNTLTISSLEPEDSAVYYCQQWSSYPPITFGGGTKLEVKR
notes: Human IgG1/kappa
Take B3: the binding result in assay [16], in assay [17], in assay [18], in assay [19], in [20] and in assay [21] was “no binding (tested: log -7.5 (about 3e-8 M))” each time. In addition, the binding result in assay [22] was “no binding (tested: log -7.5 (about 3e-8 M))”.
